According to paper PMC3790964 (Biochimica et Biophysica Acta, 2013):

Biological target: the molecule itself
Test: cross-linking + affinity purification with mass spectrometry

B1: stomatin (natural protein, human (endogenous in erythrocytes), UniProt P27105 1-288, looked up)
chain: MAEKRHTRDSEAQRLPDSFKDSPSKGLGPCGWILVAFSFLFTVITFPISIWMCIKIIKEYERAIIFRLGRILQGGAKGPGLFFILPCTDSFIKVDMRTISFDIPPQEILTKDSVTISVDGVVYYRVQNATLAVANITNADSATRLLAQTTLRNVLGTKNLSQILSDREEIAHNMQSTLDDATDAWGIKVERVEIKDVKLPVQLQRAMAAEAEASREARAKVIAAEGEMNASRALKEASMVITESPAALQLRYLQTLTTIAAEKNSTIVFPLPIDMLQGIIGAKHSHLG
  stoichiometry N: 2
